The supplement of paper PMC9112550, “Optimization of the antimicrobial peptide Bac7 by deep mutational scanning” (BMC Biology, 2022)

Test system: Escherichia coli TOP10
Assay: shrunken log2 fold change of peptide-encoding DNA abundance (4.5 h post-induction vs induction); higher = less antimicrobial activity (less host growth inhibition)
Details: time post-induction: 4.5 h; library: site-saturation at positions 5, 18, 19, 20
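Further: peptides expressed intracellularly from a pBAD plasmid library in pooled LB shake-flask culture, induced with 0.3% L-arabinose, DNA abundance read by NGS, three biological replicates, DESeq2 with apeglm shrinkage.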

Sequence	shrunken log2 fold change
RRIRARPPRLPRPRPRPVPEPRP	0.499
RRIRERPPRLPRPRPRPKLHPRP	-0.0464
RRIRQRPPRLPRPRPRPNWTPRP	-0.00963
RRIRNRPPRLPRPRPRPYAEPRP	-0.525
RRIRKRPPRLPRPRPRPIDYPRP	-0.0337
RRIRQRPPRLPRPRPRPFCKPRP	-0.0799
RRIRRRPPRLPRPRPRPQRRPRP	0.482
RRIRSRPPRLPRPRPRPPTMPRP	-0.00342
RRIRARPPRLPRPRPRPQFVPRP	-0.0892
RRIRWRPPRLPRPRPRPRRTPRP	0.0983
RRIRVRPPRLPRPRPRPRKFPRP	0.0551
RRIRPRPPRLPRPRPRPSAIPRP	-0.32
RRIRKRPPRLPRPRPRPPQLPRP	0.488
RRIRWRPPRLPRPRPRPQNGPRP	0.00668
RRIRQRPPRLPRPRPRPKGPPRP	-0.201
RRIRDRPPRLPRPRPRPNYCPRP	0.0253
RRIRDRPPRLPRPRPRPAHWPRP	0.404
RRIRLRPPRLPRPRPRPDFCPRP	-0.0853
RRIRRRPPRLPRPRPRPDPKPRP	0.304
RRIRARPPRLPRPRPRPKQFPRP	0.3
RRIRHRPPRLPRPRPRPMLDPRP	0.0917
RRIRLRPPRLPRPRPRPYWCPRP	-0.00992
RRIRQRPPRLPRPRPRPDQQPRP	0.0334
RRIRQRPPRLPRPRPRPMRSPRP	0.196
RRIRFRPPRLPRPRPRPFLNPRP	-0.484

Sequence	shrunken log2 fold change
RRIRCRPPRLPRPRPRPFMWPRP	-0.165
RRIRIRPPRLPRPRPRPGFKPRP	-0.219
RRIRKRPPRLPRPRPRPDTLPRP	0.0227
RRIRHRPPRLPRPRPRPISCPRP	-0.0318
RRIRDRPPRLPRPRPRPFCCPRP	0.26
RRIRERPPRLPRPRPRPFAHPRP	0.117
RRIRQRPPRLPRPRPRPGPSPRP	0.242
RRIRCRPPRLPRPRPRPTSMPRP	-0.308
RRIRVRPPRLPRPRPRPSMQPRP	-0.223
RRIRSRPPRLPRPRPRPPVGPRP	0.457
RRIRRRPPRLPRPRPRPYHNPRP	-0.819
RRIRCRPPRLPRPRPRPHCTPRP	-0.88
RRIRSRPPRLPRPRPRPQQMPRP	-0.155
RRIRLRPPRLPRPRPRPQNHPRP	-0.683
RRIRCRPPRLPRPRPRPGCGPRP	0.545
RRIRNRPPRLPRPRPRPSSKPRP	-0.244
RRIRTRPPRLPRPRPRPVISPRP	-0.21
RRIRRRPPRLPRPRPRPYRQPRP	-0.13
RRIRLRPPRLPRPRPRPHWMPRP	-0.0826
RRIRCRPPRLPRPRPRPSNRPRP	-0.253
RRIRKRPPRLPRPRPRPIMIPRP	-0.0532
RRIRYRPPRLPRPRPRPVWYPRP	-0.105
RRIRARPPRLPRPRPRPFVTPRP	-0.166
RRIRNRPPRLPRPRPRPMFPPRP	-0.235
RRIRIRPPRLPRPRPRPMYPPRP	-0.0642

Sequence	shrunken log2 fold change
RRIRQRPPRLPRPRPRPHHYPRP	-0.617
RRIRERPPRLPRPRPRPFWAPRP	0.084
RRIRIRPPRLPRPRPRPTVEPRP	-0.0817
RRIRWRPPRLPRPRPRPMPVPRP	0.346
RRIRTRPPRLPRPRPRPCEIPRP	0.0393
RRIRSRPPRLPRPRPRPVNQPRP	-0.155
RRIRMRPPRLPRPRPRPYQYPRP	-0.0219
RRIRDRPPRLPRPRPRPLNHPRP	-0.154
RRIRHRPPRLPRPRPRPFGPPRP	-0.247
RRIRERPPRLPRPRPRPNDIPRP	0.0203
RRIRSRPPRLPRPRPRPIINPRP	-0.565
RRIRKRPPRLPRPRPRPGAMPRP	0.639
RRIRWRPPRLPRPRPRPPEWPRP	0.36
RRIRGRPPRLPRPRPRPNGKPRP	0.311
RRIRYRPPRLPRPRPRPIVMPRP	-0.254
RRIRARPPRLPRPRPRPADGPRP	0.258
RRIRARPPRLPRPRPRPSTGPRP	-0.131
RRIRDRPPRLPRPRPRPVCWPRP	0.747
RRIRYRPPRLPRPRPRPHQSPRP	0.0552
RRIRDRPPRLPRPRPRPTYRPRP	-0.224
RRIRFRPPRLPRPRPRPAVIPRP	-0.0689
RRIRARPPRLPRPRPRPQRAPRP	1.26
RRIRVRPPRLPRPRPRPGRIPRP	0.0466
RRIRHRPPRLPRPRPRPGVVPRP	-0.227
RRIRSRPPRLPRPRPRPAPEPRP	0.479

Sequence	shrunken log2 fold change
RRIRNRPPRLPRPRPRPGSWPRP	0.257
RRIRVRPPRLPRPRPRPMYWPRP	-0.0619
RRIRNRPPRLPRPRPRPFSHPRP	-0.015
RRIRRRPPRLPRPRPRPILGPRP	0.0385
RRIRARPPRLPRPRPRPGGCPRP	0.81
RRIRYRPPRLPRPRPRPPEFPRP	0.00678
RRIRERPPRLPRPRPRPNVFPRP	-0.189
RRIRMRPPRLPRPRPRPIKSPRP	-0.0237
RRIRDRPPRLPRPRPRPLTKPRP	0.0084
RRIRKRPPRLPRPRPRPKLCPRP	0.515
RRIRFRPPRLPRPRPRPKDWPRP	0.233
RRIRDRPPRLPRPRPRPGHNPRP	-0.0961
RRIRVRPPRLPRPRPRPKAIPRP	-0.0609
RRIRTRPPRLPRPRPRPPEWPRP	0.442
RRIRTRPPRLPRPRPRPDMNPRP	-0.0432
RRIRSRPPRLPRPRPRPIQHPRP	-0.204
RRIRERPPRLPRPRPRPHAQPRP	-0.0243
RRIRWRPPRLPRPRPRPHFCPRP	-0.0299
RRIRNRPPRLPRPRPRPLFGPRP	0.0228
RRIRPRPPRLPRPRPRPSNVPRP	-0.463
RRIRGRPPRLPRPRPRPPVPPRP	0.82
RRIRVRPPRLPRPRPRPNSPPRP	-0.271
RRIRDRPPRLPRPRPRPTIRPRP	0.124
RRIRKRPPRLPRPRPRPSGDPRP	0.485
RRIRDRPPRLPRPRPRPNYDPRP	-0.211

Sequence	shrunken log2 fold change
RRIRERPPRLPRPRPRPCDKPRP	0.0148
RRIRIRPPRLPRPRPRPSYEPRP	-0.53
RRIRIRPPRLPRPRPRPNLHPRP	-0.623
RRIRDRPPRLPRPRPRPDLRPRP	-0.0435
RRIRMRPPRLPRPRPRPHGRPRP	-0.0383
RRIRFRPPRLPRPRPRPHARPRP	0.285
RRIRNRPPRLPRPRPRPTFFPRP	-0.139
RRIRNRPPRLPRPRPRPQRYPRP	-0.602
RRIRVRPPRLPRPRPRPKDSPRP	-0.327
RRIRTRPPRLPRPRPRPNPTPRP	0.207
RRIRARPPRLPRPRPRPSVVPRP	-0.0244
RRIRGRPPRLPRPRPRPQRAPRP	0.466
RRIRIRPPRLPRPRPRPNVMPRP	-0.328
RRIRCRPPRLPRPRPRPNGYPRP	-0.122
RRIRRRPPRLPRPRPRPKHQPRP	1.57
RRIRIRPPRLPRPRPRPFPKPRP	-0.101
RRIRERPPRLPRPRPRPNCQPRP	-0.0295
RRIRYRPPRLPRPRPRPERFPRP	0.0461
RRIRVRPPRLPRPRPRPDWHPRP	-0.0256
RRIRHRPPRLPRPRPRPIILPRP	-0.113
RRIRQRPPRLPRPRPRPPNTPRP	-0.0954
RRIRRRPPRLPRPRPRPICFPRP	0.496
RRIRMRPPRLPRPRPRPYHHPRP	-0.702
RRIRTRPPRLPRPRPRPHRYPRP	-0.604
RRIRHRPPRLPRPRPRPHIWPRP	-0.835

Sequence	shrunken log2 fold change
RRIRDRPPRLPRPRPRPSCQPRP	0.17
RRIRCRPPRLPRPRPRPSYAPRP	-0.544
RRIRVRPPRLPRPRPRPCMDPRP	-0.836
RRIRFRPPRLPRPRPRPRCLPRP	-0.124
RRIRQRPPRLPRPRPRPRAAPRP	0.506
RRIRNRPPRLPRPRPRPGSFPRP	-0.0339
RRIRFRPPRLPRPRPRPTHTPRP	0.186
RRIRIRPPRLPRPRPRPWKEPRP	-0.12
RRIRGRPPRLPRPRPRPAIEPRP	0.942
RRIRDRPPRLPRPRPRPKVPPRP	-0.00145
RRIRNRPPRLPRPRPRPVEVPRP	-0.296
RRIRMRPPRLPRPRPRPWNFPRP	-0.0756
RRIRLRPPRLPRPRPRPSWRPRP	0.276
RRIRKRPPRLPRPRPRPKMPPRP	0.0535
RRIRERPPRLPRPRPRPHEQPRP	-0.0112
RRIRKRPPRLPRPRPRPWNVPRP	0.0194
RRIRYRPPRLPRPRPRPQMNPRP	-1.27
RRIRMRPPRLPRPRPRPIEYPRP	0.048
RRIRLRPPRLPRPRPRPCETPRP	-0.155
RRIRCRPPRLPRPRPRPLFTPRP	-0.42
RRIRVRPPRLPRPRPRPNSDPRP	-0.429
RRIRIRPPRLPRPRPRPNLIPRP	-0.654
RRIRKRPPRLPRPRPRPSTKPRP	0.143
RRIRSRPPRLPRPRPRPAVDPRP	0.462
RRIRPRPPRLPRPRPRPQQIPRP	-0.124
